Data on eleven molecules can be found in patent US20240270821A1, “GIP/GLP1/GCG TRI-RECEPTOR AGONISTS AND USES THEREOF” (priority 2023, published 2024).

Where a chain is given by its changes, count along the chain named.

Sequences and labels used below:
B1: Example 64 (peptide)
chain: YXQGTFTSDFSXXLDKKAQXAFIEYLLEGGPSSGAPPPGGSG
modifications: synthetic construct; SITE 2: note = 2-Aminoisobutyric Acid; SITE 12: note = L-ornithine; SITE 13: note = alpha-methyl-leucine; SITE 17: note = Lysine is chemically modified through conjugation of the epsilon-amino group of the Lysine side chain with (2-[2-(2-Amino-ethoxy)-ethoxy]-acetyl)-(gamma-Glu)
B2: Example 65 (peptide)
chain: B1 chain with G42E
modifications: synthetic construct; SITE 2: note = 2-Aminoisobutyric Acid; SITE 12: note = L-ornithine; SITE 13: note = alpha-methyl-leucine; SITE 17: note = Lysine is chemically modified through conjugation of the epsilon-amino group of the Lysine side chain with (2-[2-(2-Amino-ethoxy)-ethoxy]-acetyl)-(gamma-Glu)
B3: Example 704 (peptide)
chain: YXQGTXTSDXXIXLDXKAAXEFIEXLIEGGPSSGAPPPSGSEE
modifications: synthetic construct; SITE 2: note = 2-Aminoisobutyric Acid; SITE 6: note = alpha-methyl-2-fluoro-L-phenylalanine; SITE 10: note = 3-(4-Pyridyl)-L-alanine; SITE 11: note = alpha-methyl-L-serine; SITE 13: note = alpha-methyl-leucine; SITE 16: note = L-ornithine; SITE 17: note = Lysine is chemically mo
B4: Example 726 (peptide)
chain: B3 chain with S41T, E43X
modifications: synthetic construct; SITE 2: note = 2-Aminoisobutyric Acid; SITE 6: note = alpha-methyl-2-fluoro-L-phenylalanine; SITE 10: note = 3-(4-Pyridyl)-L-alanine; SITE 11: note = alpha-methyl-L-serine; SITE 13: note = alpha-methyl-leucine; SITE 16: note = L-ornithine; SITE 17: note = Lysine is chemically mo
B5: Example 705 (peptide)
chain: B3 chain with S41E
modifications: synthetic construct; SITE 2: note = 2-Aminoisobutyric Acid; SITE 6: note = alpha-methyl-2-fluoro-L-phenylalanine; SITE 10: note = 3-(4-Pyridyl)-L-alanine; SITE 11: note = alpha-methyl-L-serine; SITE 13: note = alpha-methyl-leucine; SITE 16: note = L-ornithine; SITE 17: note = Lysine is chemically mo
B6: Example 693 (peptide)
chain: YXQGTXTSDXXIXLDXKAAXEFIEXLVEGGPSSGAPPPSGS
modifications: synthetic construct; SITE 2: note = 2-Aminoisobutyric Acid; SITE 6: note = alpha-methyl-2-fluoro-L-phenylalanine; SITE 10: note = 3-(4-Pyridyl)-L-alanine; SITE 11: note = alpha-methyl-L-serine; SITE 13: note = alpha-methyl-leucine; SITE 16: note = L-ornithine; SITE 17: note = Lysine is chemically mo
B7: Example 702 (peptide)
chain: YXQGTXTSDXXIXLDXKAAXEFIEXLIEGGPSSGAPPPSGSE
modifications: synthetic construct; SITE 2: note = 2-Aminoisobutyric Acid; SITE 6: note = alpha-methyl-2-fluoro-L-phenylalanine; SITE 10: note = 3-(4-Pyridyl)-L-alanine; SITE 11: note = alpha-methyl-L-serine; SITE 13: note = alpha-methyl-leucine; SITE 16: note = L-ornithine; SITE 17: note = Lysine is chemically mo
B8: Example 719 (peptide)
chain: B7 chain with A35E, S41T
modifications: synthetic construct; SITE 2: note = 2-Aminoisobutyric Acid; SITE 6: note = alpha-methyl-2-fluoro-L-phenylalanine; SITE 10: note = 3-(4-Pyridyl)-L-alanine; SITE 11: note = alpha-methyl-L-serine; SITE 13: note = alpha-methyl-leucine; SITE 16: note = L-ornithine; SITE 17: note = Lysine is chemically mo
B9: Example 703 (peptide)
chain: B7 chain with S41E
modifications: synthetic construct; SITE 2: note = 2-Aminoisobutyric Acid; SITE 6: note = alpha-methyl-2-fluoro-L-phenylalanine; SITE 10: note = 3-(4-Pyridyl)-L-alanine; SITE 11: note = alpha-methyl-L-serine; SITE 13: note = alpha-methyl-leucine; SITE 16: note = L-ornithine; SITE 17: note = Lysine is chemically mo
B10: Example 720 (peptide)
chain: B7 chain with A35E
modifications: synthetic construct; SITE 2: note = 2-Aminoisobutyric Acid; SITE 6: note = alpha-methyl-2-fluoro-L-phenylalanine; SITE 10: note = 3-(4-Pyridyl)-L-alanine; SITE 11: note = alpha-methyl-L-serine; SITE 13: note = alpha-methyl-leucine; SITE 16: note = L-ornithine; SITE 17: note = Lysine is chemically mo
B11: Example 697 (peptide)
chain: YXQGTXTSDXXIXLDXKAQXXFIEXLIEGGPSSGEPPPEGTGE
modifications: synthetic construct; SITE 2: note = 2-Aminoisobutyric Acid; SITE 6: note = alpha-methyl-2-fluoro-L-phenylalanine; SITE 10: note = 3-(4-Pyridyl)-L-alanine; SITE 11: note = alpha-methyl-L-serine; SITE 13: note = alpha-methyl-leucine; SITE 16: note = L-ornithine; SITE 17: note = Lysine is chemically mo

Sequence of human glucagon receptor (human) (P47871 26-477): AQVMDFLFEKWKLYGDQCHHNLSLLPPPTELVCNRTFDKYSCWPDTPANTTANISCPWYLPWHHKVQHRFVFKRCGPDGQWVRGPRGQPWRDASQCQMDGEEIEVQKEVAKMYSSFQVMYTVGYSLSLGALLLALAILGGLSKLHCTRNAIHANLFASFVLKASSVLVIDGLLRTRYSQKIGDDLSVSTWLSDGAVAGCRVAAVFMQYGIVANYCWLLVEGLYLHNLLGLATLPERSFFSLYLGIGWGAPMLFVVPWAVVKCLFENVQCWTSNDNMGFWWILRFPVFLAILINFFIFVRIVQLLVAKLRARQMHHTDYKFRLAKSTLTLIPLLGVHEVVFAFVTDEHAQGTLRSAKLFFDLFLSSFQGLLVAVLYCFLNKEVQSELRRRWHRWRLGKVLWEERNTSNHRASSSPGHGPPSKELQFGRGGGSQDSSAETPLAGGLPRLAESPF

The first test has as its target T1, human GIP receptor (human) (UniProt P48546).
T1 sequence (looked up): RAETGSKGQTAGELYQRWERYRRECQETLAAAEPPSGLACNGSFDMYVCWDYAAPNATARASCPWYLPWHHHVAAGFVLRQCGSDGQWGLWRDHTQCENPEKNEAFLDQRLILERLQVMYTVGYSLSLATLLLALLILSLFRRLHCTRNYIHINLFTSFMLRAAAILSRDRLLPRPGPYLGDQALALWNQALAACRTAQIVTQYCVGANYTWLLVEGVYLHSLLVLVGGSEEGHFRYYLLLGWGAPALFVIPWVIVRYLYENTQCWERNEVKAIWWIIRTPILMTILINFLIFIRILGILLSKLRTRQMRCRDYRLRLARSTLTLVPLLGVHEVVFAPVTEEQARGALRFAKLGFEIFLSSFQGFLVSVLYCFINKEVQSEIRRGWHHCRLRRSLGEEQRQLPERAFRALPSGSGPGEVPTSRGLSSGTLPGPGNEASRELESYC
Nature of the test: cell-based or functional assay.
On to B1, for which the Relative cAMP EC50 was 0.309 nM and the cAMP Rel EC50, nM (in the presence of 1% HSA) was found to be 24.9 nM.

Regarding B2, the Relative cAMP EC50 is 0.739 nM and the cAMP Rel EC50, nM (in the presence of 1% HSA) came out at 30.2 nM.

B3 registered a Relative cAMP EC50 of 0.013 nM and a cAMP Rel EC50 (1% HSA) of 1.2 nM.

On to B4, for which the Relative cAMP EC50 came out at 0.013 nM and the cAMP Rel EC50 (1% HSA) worked out at 1.22 nM.

In the case of B5, the Relative cAMP EC50 turned out to be 0.0128 nM and the cAMP Rel EC50 (1% HSA) was found to be 1.15 nM.

For B6, the cAMP Rel EC50 (1% HSA) was 1.1 nM.

As for B7, the Relative cAMP EC50 came to 0.0116 nM and the cAMP Rel EC50 (1% HSA) was 1.25 nM.

For B8, the Relative cAMP EC50 came out at 0.00998 nM and the cAMP Rel EC50 (1% HSA) amounted to 0.882 nM.

Molecule B9 registered a Relative cAMP EC50 of 0.0101 nM and a cAMP Rel EC50 (1% HSA) of 0.961 nM.

Consider B10, for which the Relative cAMP EC50 came to 0.0103 nM and the cAMP Rel EC50 (1% HSA) was determined as 1.02 nM.

Regarding B11, the Relative cAMP EC50 amounted to 0.0109 nM and the cAMP Rel EC50 (1% HSA) is 0.607 nM.

The next test concerns the target human glucagon receptor (human) (UniProt P47871). Nature of the test: cell-based or functional assay.
Take B1: the Relative cAMP EC50 was 4.94 nM and the cAMP Rel EC50, nM (in the presence of 1% HSA) is 626 nM.

Regarding B2, the Relative cAMP EC50 stood at 6.49 nM and the cAMP Rel EC50, nM (in the presence of 1% HSA) stood at 808 nM.

For the molecule B3, the Relative cAMP EC50 came out at 1.85 nM and the cAMP Rel EC50 (1% HSA) turned out to be 239 nM.

B4 registered a Relative cAMP EC50 of 1.71 nM and a cAMP Rel EC50 (1% HSA) of 226 nM.

B5 displayed a Relative cAMP EC50 of 1.7 nM and a cAMP Rel EC50 (1% HSA) of 234 nM.

Regarding B6, the cAMP Rel EC50 (1% HSA) worked out at 304 nM.

Consider B7, for which the Relative cAMP EC50 was determined as 1.5 nM and the cAMP Rel EC50 (1% HSA) worked out at 196 nM.

Molecule B8 showed a Relative cAMP EC50 of 1.44 nM and a cAMP Rel EC50 (1% HSA) of 181 nM.

Take B9: the Relative cAMP EC50 stood at 1.56 nM and the cAMP Rel EC50 (1% HSA) was found to be 201 nM.

B10 gave a Relative cAMP EC50 of 1.78 nM and a cAMP Rel EC50 (1% HSA) of 239 nM.

Regarding B11, the Relative cAMP EC50 stood at 1.71 nM and the cAMP Rel EC50 (1% HSA) was determined as 130 nM.

For another test, the target named is hGLP-1R (Homo sapiens, UniProt P43220). Nature of the test: cell-based or functional assay.
Sequence of hGLP-1R (P43220 24-463): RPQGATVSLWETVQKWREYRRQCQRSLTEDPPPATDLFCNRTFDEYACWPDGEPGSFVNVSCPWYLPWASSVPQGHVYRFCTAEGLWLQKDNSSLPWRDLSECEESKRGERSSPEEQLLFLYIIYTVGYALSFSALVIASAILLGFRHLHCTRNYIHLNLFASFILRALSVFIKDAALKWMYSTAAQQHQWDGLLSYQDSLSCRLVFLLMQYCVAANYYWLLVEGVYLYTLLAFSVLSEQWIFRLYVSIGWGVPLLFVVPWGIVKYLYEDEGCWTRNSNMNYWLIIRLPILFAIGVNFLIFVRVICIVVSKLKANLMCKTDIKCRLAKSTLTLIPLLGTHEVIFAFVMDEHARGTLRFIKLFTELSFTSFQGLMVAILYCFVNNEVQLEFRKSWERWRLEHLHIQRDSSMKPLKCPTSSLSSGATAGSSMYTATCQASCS
On to B1, for which the Relative cAMP EC50 is 4.08 nM and the cAMP Rel EC50, nM (in the presence of 1% HSA) turned out to be 397 nM.

On to B2, for which the Relative cAMP EC50 was determined as 4.21 nM and the cAMP Rel EC50, nM (in the presence of 1% HSA) was 462 nM.

Regarding B3, the Relative cAMP EC50 was 0.287 nM and the cAMP Rel EC50 (1% HSA) turned out to be 33.9 nM.

As to B4, the Relative cAMP EC50 was 0.247 nM and the cAMP Rel EC50 (1% HSA) was found to be 33.3 nM.

B5 had a Relative cAMP EC50 of 0.305 nM and a cAMP Rel EC50 (1% HSA) of 33.7 nM.

For the molecule B6, the cAMP Rel EC50 (1% HSA) came out at 18 nM.

The molecule B7 gave a Relative cAMP EC50 of 0.243 nM and a cAMP Rel EC50 (1% HSA) of 28.4 nM.

In turn, B8 came in with a Relative cAMP EC50 of 0.22 nM and a cAMP Rel EC50 (1% HSA) of 23.2 nM.

Consider B9, for which the Relative cAMP EC50 was found to be 0.233 nM and the cAMP Rel EC50 (1% HSA) was 27.1 nM.

Turning to B10, the Relative cAMP EC50 amounted to 0.245 nM and the cAMP Rel EC50 (1% HSA) was 28.3 nM.

Molecule B11 registered a Relative cAMP EC50 of 0.235 nM and a cAMP Rel EC50 (1% HSA) of 18.2 nM.
